Assay results from patent US20250109171A1, “COMPOUNDS AND COMPOSITIONS FOR TARGETED THERAPY OF RENAL DISEASES” (SHANGHAI MICURX PHARMACEUTICALS CO., LTD., priority 2021, published 2025).
Positions of bridges follow the written chain, without caps; N, C: chain ends. Non-standard residues stand in square brackets, D forms with d. Residues, ends and D or L forms follow the SMILES beside them. *: point of attachment. Succinyl(O21-dexamethasone) = C[C@@H]1C[C@H]2[C@@H]3CCC4=CC(=O)C=C[C@]4(C)[C@@]3(F)[C@@H](O)C[C@]2(C)[C@@]1(O)C(=O)COC(=O)CCC(=O)*; X1 = CC(C(=O)OCC(=O)[C@@]1(O)[C@H](C)C[C@H]2[C@@H]3CCC4=CC(=O)C=C[C@]4(C)[C@@]3(F)[C@@H](O)C[C@@]21C)C(C)C(=O)*; Dab = NCC[C@H](N)C(=O)O

What was measured:
[1] = Rodent (mouse) PK model of intravenous administration: dexamethasone levels in kidney tissue; assay type: in vivo; conditions: for Kidney drug (dexamethasone) concentration: T = 24 h, the last time point evaluated; for Kidney dexamethasone levels greater than those achieved through injection of unconjugated dexamethasone: drug concentration in kidney tissue, summary of Table 1
Description: Preferential renal targeting validating the delivery of compounds provided herein into kidneys (or at the site of a kidney injury) is evaluated, for example, by pharmacokinetic (PK) tests, such as in a standard rodent PK test. PK data are generally used to establish the key parameters predictive of the therapy outcome. Thus, a drug concentration (C) at given time points, drug concentration at the target tissue(s) (CTarget), area under the curve (AUC) for a plot monitoring the change in the systemic drug concentration over time and other parameters are generally predictive of therapeutic efficacy. For example, drug concentration at an organ affected by cancer is important for effective action of anticancer agents (as described, for example, by Zhang et al. in Drug Metabolism and Disposition. 2019, vol. 47, p. 1122).
Representative compounds provided herein were tested in a rodent PK model of intravenous administration performed analogously to methods described in the monograph Current Protocols in Pharmacology, 2005, 7.1.1-7.1.26, John Wiley & Sons, Inc. Illustrative mouse PK data for the compounds of Examples 1 and 2 are summarized in the Table 1 below.

[2] = tested on: cisplatin-induced acute kidney injury (AKI); experiment: Cisplatin-induced acute kidney injury mouse model (blood CREA and BUN on day 3); assay type: in vivo, C57BL/6 mouse; conditions: cisplatin 20 mg/kg i.p.; test articles i.v. after 1 h, 4 mg/kg; about 20% dexamethasone equivalent dosing; FIG. 1
Description: Specifically, in one of the tests, cisplatin (20 mg/kg) was administrated to C57BL/6 mouse (male, weight range 20-25 g) by intraperitoneal injection to induce acute kidney injury. After 1 h, testing articles (saline, or dexamethasone, or a compound of Example 1 or 2) were given by intravenously. On day 3, blood CREA (creatinine) and BUN (blood urea nitrogen) were determined.

[3] = T = 3 h, injection into mouse tail vein
[4] = T = 3 h, injection into mouse tail vein, dexamethasone 1 mg/kg, Examples 4 mg/kg

C[C@@H]1C[C@H]2[C@@H]3CCC4=CC(=O)C=C[C@]4(C)[C@@]3(F)[C@@H](O)C[C@]2(C)[C@@]1(O)C(=O)CO [Dexamethasone, dexamethasone, reference compound]
Enhanced dexamethasone levels in kidney expressed per ratio vs. dosing of free dexamethasone [1, 3]: 1
Drug levels from standard injection of unconjugated drug ([1]; after only 6 h): virtually undetectable
concentration at 3 h ([1]; kidney, intravenous, T = 3 h, injection into mouse tail vein, dexamethasone 1 mg/kg, Examples 4 mg/kg, read-out: Kidney tissue concentration (dexamethasone levels in kidneys)): 13 ng/g

CC(C)C[C@@H]1NC(=O)[C@@H](Cc2ccccc2)NC(=O)[C@H](CCN)NC(=O)[C@@H](NC(=O)[C@H](CCN)NC(=O)[C@@H](NC(=O)C(C)C(C)C(=O)OCC(=O)[C@@]2(O)[C@H](C)C[C@H]3[C@@H]4CCC5=CC(=O)C=C[C@]5(C)[C@@]4(F)[C@@H](O)C[C@@]32C)[C@@H](C)O)CCNC(=O)[C@H]([C@@H](C)O)NC(=O)[C@H](CCN)NC(=O)[C@H](CCN)NC1=O (stereo partly shown) [Example 1] (X1-T[Dab][Dab][Dab][dF]L[Dab][Dab]T; lactam 3-C)
Enhanced dexamethasone levels in kidney expressed per ratio vs. dosing of free dexamethasone [1, 3]: 9.4
Kidney tissue concentration (dexamethasone levels in kidneys) [1, 4]: 122.2 ng/g
Kidney drug (dexamethasone) concentration [1]: 21.5 ng/g
Kidney dexamethasone levels greater than those achieved through injection of unconjugated dexamethasone [1]: about 9 fold
Anti-inflammatory efficacy in the AKI model per BUN and CREA values, compared to dexamethasone [2]: greatly increased anti-inflammatory efficacy

CC(C)C[C@@H]1NC(=O)[C@@H](Cc2ccccc2)NC(=O)[C@H](CCN)NC(=O)[C@@H](NC(=O)[C@H](CCN)NC(=O)[C@@H](NC(=O)CCC(=O)OCC(=O)[C@@]2(O)[C@H](C)C[C@H]3[C@@H]4CCC5=CC(=O)C=C[C@]5(C)[C@@]4(F)[C@@H](O)C[C@@]32C)[C@@H](C)O)CCNC(=O)[C@H]([C@@H](C)O)NC(=O)[C@H](CCN)NC(=O)[C@H](CCN)NC1=O [Example 2] ({Succinyl(O21-dexamethasone)}-T[Dab][Dab][Dab][dF]L[Dab][Dab]T; lactam 3-C)
Enhanced dexamethasone levels in kidney expressed per ratio vs. dosing of free dexamethasone [1, 3]: 7.2
Kidney tissue concentration (dexamethasone levels in kidneys) [1, 4]: 93.4 ng/g
Kidney drug (dexamethasone) concentration [1]: 18.5 ng/g
Kidney dexamethasone levels greater than those achieved through injection of unconjugated dexamethasone [1]: ~7 fold
Anti-inflammatory efficacy in the AKI model per BUN and CREA values, compared to dexamethasone [2]: greatly increased anti-inflammatory efficacy
